Experimental data reported in a protein production outcome set (Wang et al. 2014).

Assay: label from the status in PepcDB records

**Q.** Which protein production does the source give for “MNSHMLVSSEIDIGLNKSNIERPPGSKKRTKHLPCEVPLAESADRILEPQDYLNFTRFSLGFVETETYDNPRFGGHQTLSERERSYSAVNQTIHCGFVKGTGFDLSEKDRAYMKNCVVSVSSCIFGSSDFLRRPATKKISEFSKRNVCFVMFVDEQTLSKLASEGHVPDKQGFVGLWKTVVVSNLPYNDMRKTGKVPKFLSHRLFPSSRYSIWLDSKMRLTTDPMLIIDFFLWRTKSEFAISNHYDRHCVWDEVLQNKRLNKYNHSAIDEQFMFYRSDGLKKFDPSDPNSPLPSYVPEGSFIVRAHTPMSNLFTCLWFNEVDRFTSRDQLSFAYTYLKLQRLNSDRPLRLNMFKDCERRALTKLFHHRVDSSPPSPPT” here?
**A.** The protein production was “not failed”.

**Q.** With “MNSIKTPLLFLLIAFSSIFQSFSAGKPLGYEIKATIKGVKQADTVYLARYYADKRFYQDTAIADAKGFVSFSDTTHLKEGMYFLLLPGQKVFDFILNPSTLSFSIDTTNLIKSAHFKNSPDNTAFYDYQRFFMNQKTKADSINNLMKSAAATQKTVLTKQLSDIDSTMLAYIQNFLKTNPNSLFTAILKTTKDVDVPPAPKKADGSIDSSWQFHYYKKHYFDNVNFSDDRLIRTPVLVNKVDGYFKNLVVQRPDSIIKEIDMIISKCNPKGDLFEYYVREYTYKYETSQVMGMDAVFVHLGKEYYMKGKCFWATPETVKKIKERVDLLDPLLLGKKAPNLYMTDTTGTYRYLYDVQAKYTILFFWDSQCGHCQQETPKLYDWWLKNRAKGIQVYAANIERKDEEWLKFIRSKKIGGWLNVRDSKNHTDFKITYDIYATPVLYVLDKNKVIIAKRIGYENLDDFLVQYEKSLKTK” as the sequence, how does the protein production read?
**A.** Its protein production is “failed”.

**Q.** For “MNSIQIADETYVAADAARVSAAVADRCSWRRWWPDLRLQVTEDRADKGIRWTVTGALTGTMEIWLEPSMDGVLLHYFLHAEPTGVAAWQLARMNLARMTHHRRVAGKKMAFEVKTVLERSRPIGVSPVT”, which protein production is on record?
**A.** The protein production was “failed”.

**Q.** With “MNSLINIFNQYSELAIFISLFISVIIALLGIVPSVFVTGANIVFFGPINGFLISLLGEVIGGWISFKVYRKGINKFAGNIEGKYELIDKIVKSEGRNVGILIFEGRLIPFIPSGLVTLAAAMSKVNSFTFIISTFLGKIPSILLEVLASYGVIMASQKNLKLVIGVLSLILFLLTLKKLKDKTNKK” as the sequence, how does the protein production read?
**A.** Its protein production is “failed”.

**Q.** With “MNSLLFVYGTLRKHEKNHHLLAQSACINEQARTKGSLFAAKEGPTVVFNDEDEGYIYGEVYEADELCIHKLDQFFQGYHKQTVFVETDVGIKIALIYFMNKDGCAGFTKISSGDWKEHQMISKSKNPIYYFAYGSCMDNARFQKAGVDHYFQDPVGRAVLKGYTTRFTLKREDGSRADMLEDGGTTEGVLYRIPYSALSYLYKREGVESLTYRPAFVDVEAGGRHYKDCLTFLVLQKEAEIAPPQHYQIEIERGAELYLSPEFTEKLKRHMNSLPKGLEHHHHHH” as the sequence, how does the protein production read?
**A.** Its protein production is “not failed”.

**Q.** For “MNSLPRPDIGPFADTPEKRWVGVSFGAAAVGYDGVAALQREVGESLLAGIRHLGPPPARMLDLGAGTGHFSGLLVAAFPTAECLALDIAEGMLRFLRSHRPGADGMGLVVGDAEALPLADESVDLIFSNMAFQWCERLDRAISECCRVLRPGGRLAFSTFGEATLAELRMAWRAVDGYTHVNAFATRRSVEQELRAQGFTKIRLDARTLRRGYPSVLALMKELKALGARNLTRNRPRHLLSRHTLERVSEAYGRLPGMASAVTASFEVLTALVEK”, which protein production is on record?
**A.** The protein production was “failed”.

**Q.** Which protein production does the source give for “MNSLSVIKPNNAMPMTAEYRQSIRTALKTSLYPGASDTSVDMVLAYCQAADLDPMTKPVHIVPMWIPEKKVDGRVMSSAGMRDVIMPGIELYRTKAHRTGEYAGQDEAVFGDTVCETLGGVQIRYPSWCRIAVYRMVAGERVRFAATVYWLEAYATARKDSPAPNSMWQKRPFGQLEKCAEALALRKAFPEAVGAQPTAEEMDAGRHTIEGETIHVAPIPVNKDIRDISGPYPQEEFEKNFPKWCDLIESGKTTADRIITMLHSKGKGQLSLEQLTAIRACAEDTSAEPVPTDNTPQESNTTDTEENT” here?
**A.** The protein production was “not failed”.

**Q.** Which protein production does the source give for “MNSNIYAVIVTYNPELKNLNALITELKEQNCYVVVVDNRTNFTLKDKLADIEKVHLICLGRNEGIAKAQNIGIRYSLEKGAEKIIFFDQDSRIRNEFIKKLSCYMDNENAKIAGPVFIDRDKSHYYPICNIKKNGLREKIHVTEGQTPFKSSVTISSGTMVSKEVFEIVGMMDEELFIDYVDTEWCLRCLNYGILVHIIPDIEMVHAIGDKSVKICGINIPIHSPVRRYYRVRNAFLLLRKNHVPLLLSIREVVFSLIHTTLIIATQKNKIEYMKKHILATLDGIRGITGGGRYNA” here?
**A.** The protein production was “failed”.

**Q.** For “MNSNPFVSVVMSVYNGGEFLKDAINSILSQSYKNFEFIIINDGSSDNFSEILELYDDERIKVLNNQENKGLVYSLNRGLLESIGKYIVRMDADDISLPNRIEKQVEFMEREPEVGVCGSYIEIFGDTIKRKVQRFPSNVNVNEAFLLFSTCLAHPSVIIRKSIVDKYKLRYDDRYLHAEDYAIWCQAVKYTKISNIREVLLKYRILESSVTRQANKNFQSRFDVHKSIYKDIFRNKGIDYTEKELYLHFIISDNNRFRNQALTIRPSEINAHLTKILSHYRGASNYKYIAFLVNKRGLSLSRWYSESRGFYFIMYLFKFLYYKIQIKKLEHHHHHH”, which protein production is on record?
**A.** Its protein production is “failed”.

**Q.** For “MNSRMKIKKAYEYMKSFHQHDTTGHDIAHVERVYNNACYIAKRENITDTLVIELSSLLHDTVDSKLTDEILAYDQLKQFLSTLDLSSEISQQVLYIIKHMSYRAGKNNHVKLSIDGEIVRDADRLDAIGAIGIARTFQFSGHFGEPMWTETKLSNEELHTSLVEELDNSAIKHFYEKLFKLKDLMHTPTAKKLAEERHQFMIQYLKQFMSEWNFNKELEHHHHHH”, which protein production is on record?
**A.** The protein production was “not failed”.

**Q.** For “MNSTLFSQVENHSVHSNFSEKNAQLLAFENDDCHLPLAMIFTLALAYGAVIILGVSGNLALIIIILKQKEMRNVTNILIVNLSFSDLLVAIMCLPFTFVYTLMDHWVFGEAMCKLNPFVQCVSITVSIFSLVLIAVERHQLIINPRGWRPNNRHAYVGIAVIWVLAVASSLPFLIYQVMTDEPFQNVTLDAYKDKYVCFDQFPSDSHRLSYTTLLLVLQYFGPLCFIFICYFKIYIRLKRRNNMMDKMRDNKYRSSETKRINIMLLSIVVAFAVCWLPLTIFNTVFDWNHQIIATCNHNLLFLLCHLTAMISTCVNPIFYGFLNKNFQRDLQFFFNFCDFRSRDDDYETIAMSTMHTDVSKTSLKQASPVAFKKINNNDDNEKI”, which protein production is on record?
**A.** The protein production was “failed”.

**Q.** For “MNSYDFITALVPIILIIIGLGIIKKPAYYVIPISLIATVAIVIFYKNLGIVNTSLAMLEGALMGIWPIATVIIAAIFTYKMSEDQKDIETIKNILSNVSSDRRIIVLLVAWGFGNFLEGVAGYGTAVAIPVSILIAMGFEPFFACLICLIMNTSSTAYGSVGIPITSLAQATNLDVNIVSSEIAFQLILPTLTIPFVLVILTGGGIKGLKGVFLLTLLSGMSMAISQVFISKTLGPELPAILGSILSMTITIVYARFFGNKETTERQSKNTISLSKGIIACSPYILIVTFIVLVSPLFNKIHEYLKTFQSTISIYPEANPLHFKWIISPGFLIILATTISYSIRGVPMLKQLKIFTLTLKKMALSSFIIICIVAISRLMTHSGMIRDLANGISIITGKFGPLFSPLIGAIGTFLTGSDTVSNVLFGPLQTQMAENIGANPYWLAAANTTGATGGKMISPQNITIATTTAGLIGQEGKLLSKTIIYALYYILATGLLVYLV”, which protein production is on record?
**A.** The protein production was “failed”.

**Q.** With “MNTDLTLVIMAAGLGSRFGGDKQLASLGPSGEPMLVLSILSAIRSGFQRAVLVIRPELEAELTGILTQFLPANFEYHFCYQSLSDLPQDAKLADLSHRLKPWGTAHALWCARDWVKGPMAVINADDFYGDSAFASLAKGLTARPNDWMMVAYPIELTLSEHGGVNRGLCQVAQGQLRSVAEWLNIQAQDDGFVGEGPNGLAKLPLQSLVSMTCWGFSPSIFNVIKQQLTAFIEQQGQLPKSECYLPAVVQAAIEQGVPVYVDVASEPWLGVTYPQDTVWVKQKLMELLGDKTHLEHHHHHH” as the sequence, how does the protein production read?
**A.** The protein production was “failed”.

**Q.** With “MNTHLKQLIEISHLDKEIDSLEPLIREKRKDLDKALNDKEAKNKAILNLEEEKLALKLQVSKNEQTLQDTNTKIASIQKKMSEIKSERELRSLNIEEDIAKERSNQANREIENLQNEIKHKSEKQEDLKKEMLELEKLVQQLESLVENEVKNIKETQQIIFKKKEELVEKTEPKIYSFYERIRRWAKNTSIVTIKKQACGGCFIRLNDKIYTEVLTSGDMITCPYCGRILYAEG” as the sequence, how does the protein production read?
**A.** Its protein production is “failed”.

**Q.** Which protein production does the source give for “MNTHQNRYSVQSKVSALINCRLFQSFITTVIVLNAISIGLETYAFFKPYQKVFFIVDCLFLTIFVIELSLKLFVQKQHFFKNNWNVFDFVIVAGSLILYNTNFVSVLRIFRVLRVLRTITSVPSLRRIVNALFMAIPTISSVIILMSIIFYVYAVIGTMFFSAIAPEYFGNLQLSLLTLFQTFTLESWASGIFRPIFAESGWSWLYFVSFIVIATFIMINLIVGEIVNNAQKISQEIEDETGELKEDTKEIKELRAEVKELKALLQTYITQNEKKD” here?
**A.** The protein production was “failed”.

**Q.** Which protein production does the source give for “MNTLIASLEKVILPFAVKIGKQPHVNAIKNGFIRLMPLTLTGAMFVLINNVFLSFGEGSFFYSLGVRLDASTIETLNSLKSIGGSVYNGTLGIMSLMTPFFISMALAEERKVDPLASALLAVAAFMTVTPFNVGEAYAVGANWLGGANIISGMVIGLAVAEMFAFIVRRNWVISLPDSVPASVSRSFSALIPGFIILSIMGLVAFALAHWGTNFHQIIMDGISAPLAKMGSVVGWVYVLFSSLLWFFGVHGSMALAALDSGIMTPFALENVELYNKYGSVEAAVAAGKEFHMWAKPFVDSYIYLGGTGSTLGLIIAIFIASRREDYRQVAKLATPSGIFQINEPILFGLPVIMNPVMFIPFILVQPVLTIITSLAYYSGLIPPITNIAPWTMPVGLGAFFNTNGSIMAMLLSLFNLAVATVIYLPFVAISNKAQSQIDAATESEEDIAKALKF” here?
**A.** Its protein production is “failed”.

**Q.** Which protein production does the source give for “MNTLYTLFATCPRGLETVLSQELGSLGCTDVQAFDGGVSCRGGLEQAYAANLHSRTAGRILLRLTKGTYRTERDIYKLAKNINWFNWFTLQQTFKVKIEAKRANVKSLQFAGLTVKDAVCDAFRDIYDARPSVDKAAPDVRIHAFLDERNVEIFIDTSGEALFKRGYRLDTGEAPLRENLAAGLLLSAGYDGTQPFQDPFCGSGTIAIEAAWIAAGRAPGMMRRFGFEKLQNFDKTLWADLRRRAEAQTRPVRAPIAGSDNGRRIVQTALDNAHNAGADDIVSFSVAGAQSVRPNGENGIMVSNPPYGVRLEEVRALQALYPQLGTWLKKHYAGWRVGMFTGDREMPKFMRLLPKRKIPLYNGNIDCRLFLIDMVQGSNR” here?
**A.** Its protein production is “not failed”.

**Q.** For “MNTPLRRVAIAVMVMVVALLANATYVQVIKADNLRADPRNSRVLLDEYSRQRGQISAAGQVLAASVPTDDRYKYLRTYPPNPAAPSSPLANAPVTGFYSMQYGSTGLERSEDPVLNGSDNRLFGRRFFDLVSGRDPRGGNVVTTINPVMQQVAYDQLTAKGYTGSVVAIEPSTGRILTMVSTPSYDPNSLASHDGTETTQAWEALNADPEKPLINRAVSQTYPPGSTFKVVVTAAALAAGTTPDTQLTAAPQITLPGTSTTLENYNGSTCGGAPTASLREAFARSCNTAFVELGVKTGTDAVSDQSSALGIGGQMPGVPFPVADSTIGSIPDDAALGQSSIGQRDVALTPLQNAMIAATVANGGVRMQPQLVSELQGPDLSNLATTNPVSEGQAMSSQVAATLTDLMIGSENNTSGEGKIPGVQIASKTGTAEHGTDPRNTPPHAWYIGFAPAQNPTVAIAVIVEDGGDRALAATGGSVAAPIGRAVIAAGLQGG”, which protein production is on record?
**A.** The protein production was “failed”.

**Q.** For “MNTTPFPALSAETLLAVNTVGQWLAQNDFSGEQPYSSDCVVLAGNAVIPTIDAACRIAKAQGVPLLISGGIGHSTPFLYAVIARHPRYHTIRTSGRAEAAILADIANQFWHIPAEKIWLEDRSTNCGENARFSCALIRQAKENINTAIVVQDPTMQRRTIAAFRRVTNDDTDAPRWLSFPGFVPVLRHLNDGTRFANVEEGIWTVERYLSLIAGELPRLRDDETGYGPRGKDFIIHVDIPRDIENAWQVLQADTTLRSALGQRALRLEHHHHHH”, which protein production is on record?
**A.** The protein production was “not failed”.

**Q.** For “MNTTQGEYTTTAKWLHWLMATLIALAWLIGFYVSDLPKGPEKAAIMAWHKGLGTAVLALITVRLAWRLLHPPPRLPDTLSPGLQRAAHSAHWTLYGLMIAQPLSGWAVSSANGYPVKLFGLITLPALVEKNEVLAQTFVEIHEFLAWGLALLVVGHVVMAIKHHHVDRNGILHRMLPGRRPTSD”, which protein production is on record?
**A.** The protein production was “failed”.
